Test results taken from the nanobody polyreactivity screen of Harvey et al. (2022).

Assay: yeast display, Sf9 membrane polyspecificity reagent, FACS + sequencing; frameworks hold sequencing errors
How it was run: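 Genes from sorted yeast were amplified by colony PCR, read by MiSeq 2 × 250 sequencing and filtered on CDR length. These cells carried a synthetic nanobody library in Saccharomyces cerevisiae BJ5465 and were sorted by FACS into low and high (top ~1%) gates on anti-HA and streptavidin fluorescence. Polyreactivity is labelled according to the gate of origin.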

Sequence	polyreactivity (PSR sort gate)
QVHLVDSGGGLVQAGGSLRLSCAASGRTFQVYTMGWSRQAPGKERELVAAITWNGGRTRYADSVKGRFTISRDNAKNTVYLQMTSLKPEDTAVYYCNAGNWITARAGFNDWGQGTQVTVSS	high polyreactivity
QVQLVESGGGLVQAGGSLRLSCAASGSTLKSNVMGWYRQAPGKERELVAAISSSGGSTSYADSVKGRFTISRDNAKNTVYLLMKSLNPEDTAVYYCAARMGRYFWNSGVDYWGQGTQVTVSS	high polyreactivity
QVQLVESGGGLVQAGGSLRLSCAASGINFYRYAMGWYRQAPGKERELVAAITGSGGNTYYADSVKGRFTISRDNAKNTVYLQMNSLKPEDTAVYYCAKRDYRHQYNYWGQGTQVTVSS	high polyreactivity
QVQLVESGGGLVQAGGSLRLSCAASGSTIRNYAMGWYRQAPGKERELVAAISSGGRTYYADSVKGRFTISRDNAKNTVYLQMNSLKPEDTAVYYCYTPYTVRGRYSYDYWGQGTQVTVSS	high polyreactivity
QVQLLESGGGLVQAGGSLRLSCAASGRTFYFYVMGWYRQAPGKERELVARISWSGGSTYYADSVKGRFTISRDNSKNTVYLQMNSLKPEDTAVYYCNTVDSIPIGSGLYYYWGQGTQVTVSS	low polyreactivity
QVQLVESGGVLVQAGGSLRLSCAASGSTLGGNAMGWYRQAPGKEMELVAAITSSAGSTYYADSVKGRFTISRDNAKNTVYLQMNSLKPEDTAVYYCDADYSRDEYDYWGQGTQVTVSS	low polyreactivity
QVQLVESVVGLVQPRGSLRLSSASSGRTFRQYAMGRYRQAPGKERDLVAAIRTNGGRTYYADSVKGRFTISRDNAKNTVYLQMNSQKPEDTAVYYCAVYAFVQGVLFDYWGQGTQVTVSS	high polyreactivity
QVQLEESGGGLVQAGGSLRLSCAASGFTFPWNVMGWYRQAPGKEREFVAAISKSAGSTFYADSVKGRFTISRDNAKNTVYLQMNSLKPEDTAVYYCAKPRVPGVHVQEMYYWGQGTQVTVSS	low polyreactivity
QVQLVESGGGLVQAGGSLRLSCAASGRTFHIYAMGWYRQAPGKERELLAAINYSGGSTYYADSVKGRFTISRDNAKNSVYLQMNSLKPEDTAVLYCAAVVYNVPWWFEYDYWGQGTQVTVSS	low polyreactivity
QVQLVESGGGLVQAGGSLRLSCAASGRILYYYDMGWYRQAPGKERELVARIGGTYYADSVKGRFTISRDNAKNTVYLQMNSLKPEDTAVYYCAAEYGYDFFRSYQEYGYWGQGTQVTVSS	low polyreactivity
QVQLVESGGGIVQAGGSLRLSCAASGRTFAYYTMGWYRQAPGKERELVARISNRGTNTYYADSVKGRFTISRDNAKNTVYLQMNSLKPEDTAVYYCAKYYYTSIVGYDSWGQGTQVTVSS	low polyreactivity
QVQLVESGGGLVQAGGSLRLSCAASGSTFRYYAMGWYRQAPGKERELVAVISTSGNTYYADSVKGRFTISRDNAKNTVYFQMNSLKPEDTAVYYCAARGVGGQISQEYDYWGQGTQVTVSS	low polyreactivity
QVQLVESGGGLVQAGGILRLSCASYGSTFALYAMGWYRPAPGKERELVATITGSGGITYYADSVKGRFTISRDNAKNTVYLQMNSLKPVDTAVYYCAADPYTLYWYYWYGTSGFDYWGQGTQVTVSS	low polyreactivity
QVQHVESGGGLVQAGGSLRLSGAASGSTFQSYAMGWYRQAPGQERELVAAISTSDTDRTYYADSVKGRFTISRDNAKNTVYLQMNSLKPEDTAVYYCNADGYAHGDWYGYWGQGTQVTVSS	low polyreactivity
QVQLVESGGGLVQAGGSLRLSCAASGRIFYTYAMGWYRQAPGKERELVATISGRGGSTYYADSVKGRFTISRDNAKNTVYLLMNSLKPEDTAVYYCAAVSYTQSHAYWGTGYRYGYWGQGTQVTVSS	high polyreactivity
QVQLVESGGGLVQAGGSLRLSCAASGSIFQYYGMVWYRQAPGKERELVASISRSGGSTYYADSVKGRFTISRDNAKNTVYLQMNSLKPEDTAVYYCNAKEPIRRTHLTSTYRDGYWGQGTQVTVSS	low polyreactivity
QVQLVESGGGLVQAGGSLRLSCDASGITFVRYTIRWYRQAPGKEREFVAGITRGGSTYYADSVKGRFTISPDNAKNNVFLQRNSLKPEDTAVYYCAARPRFLRASVEYDYWGQGTQVTVSS	high polyreactivity
QVQLVESGGGLVQAGGSLRLSCAASGRTFGRYVMGWYIQAPGKERELVAAIRWSGGTTYYADSVKGRFTISRDNAKNTVYLQMNSLKPEDTAVYYCAARWGPYYGGVRYGYWGQGTQVTVSS	high polyreactivity
QVQLVESGGGLVQAGGSLRLSCAASGFTPGNVMGWYRQAPGKERELVAAISWSGDSTYYADSVKGRFTISRDNAKNTVYLQMNSLKPEDTAVYYCAARVVGSYRKTYPYGLYYWGQGTQVTVSS	high polyreactivity
QVQLVESGGGLVQAGGSLRLSCAASGSIFQPYAMGWYRQAPGKERELVAAISSSGGSTTYADSVKGRFTISRDNAKNTVYLQMNSLKPEDTAVYYCAADVEYKVFPGDYWGQGTQVTVSS	low polyreactivity
QVQLVESGGGLVQAGGSLRLSCAASGSTFRYYAMGWYRQAPGKERELVAAITQSGGITYYADSVKGRFTISRDNANNTVYLQMNSLKPEDTAVYFCAKRYYVDYDYWGQGTQVTVSS	low polyreactivity

Sequence	polyreactivity (PSR sort gate)
QVQLVESGGGLVQAGGSLRLSCAASGRIFRVNSMGWYRQAPGKEREFVAAITKNGGSTYYADSVKGRFTISLDNANNTVYLQMNSLKPEDTAVYYCAVRAWDPYTGKCVYWGQGTQVTVSW	low polyreactivity
QVQLVESGGGLVQAGGSLRLSCAASGRTFERYAMGWYRQAPGKERELVATITRRGGSTYYADSVKGRFTISRDNAKNTVYLQMNSLKPEDTAVYYCNADNQAYRIYARGYWGQGTQVTVSS	high polyreactivity
QVHLVESGGGLVQAGGSLRLSCAASGRTFPYNAMGWYRQAPGKERELVDAISSGGSTNYADSVKGRFTISRDNAKNTVYLQMNSLKPEDTAVYYCATKYQRRPYRYSYWGQGTQVTVSS	low polyreactivity
QVQLEESGGGLVQAGGSLRLSCAASYAMGWYRQAPGKERELVATITRTDRTNYADSVKGRFTISRDNAKNTVYLQMNSLKPEDTAVYYCNKVDWSAPGDSPKYGYWGQGTQVTVSS	low polyreactivity
QVQLVESGGGLVQAGGSLRLSCAASGRTFNGYAMGWYRQAPGKERELVAAISSSGGSTYYADSVKGRFTISRDNAKNTVYLQMNSLKPEDTAVYYCAARRANGFNYWGQGTQVTVSS	high polyreactivity
HEQRVESCGGLVQARCSLRLSCAASGGTFRYNTMGWYRQAPGKERDLVADISSDGRTYYADSVKGRFTISRDNAKTSVYLQMNSLKPEDTAVDYCAVDRFTPDVYEYGYWGQGTQVTVSS	high polyreactivity
QVQLVESGGGLVQAGGSLRLSCAASGYTFKVYAMGWYRQAPGKERELVAAIRSSGGSTYADSVKGRFTISRDNAKNTVYLQMNSLKPEDTAVYYCAKAGYVSGLYSATRYEYWGQGTQVTVSS	low polyreactivity
QVQLVESGGGLVQAGGCLRLSCAASGFIFSKNVMGWYRQAPGTERELVARITRSGGTTNYADSVKGRFTISRDNAKNTVYLQMNSLNPGDTAVYFCAARGYGYTSITWYDYWGQGTQVTVSS	high polyreactivity
QVQLVESGGGLVQAGGSLRLSCAASGFTFYTYVMGWYIQAPGKERELVAAITSGVYTNYADSVKGRFTISRDNAKNTVDLQMKSLKPEDTAVYYCNKDVRQAYRWYDSWGQDTQVTVSS	low polyreactivity
QVQLVESGGGLVQAGGSLRLSCAASGRTFNYNAMGCYRQAPGKERELVAAITSGGRTNYADSVKGRFTISRDNAKNTVYLQMNSLKPEDTAVYYCATEYYRYRWVGAFRYPVYYWGQGTQVTVSS	low polyreactivity
QVQLVESGGCLEQAGGSLRLSCAASGFTFVSNDMGWYRQAPGKERELVAAISQGGGSTYYADSVKGRFTISRDNAKNTVYLQMNSLKPEDTAVYYCAAEDVYFGYDYWGQGTQVTVSS	low polyreactivity
QVQLVESGGGLVQAGGSLRLICAASGSTFGEYAMGWYRQAHGKERELVAVITSDDNTYYADSVKGRFTISRDNAKNTVYLQMNSLKPEDTAVYYCAARGYVLARSQQWRREYYWGQGTQVTVSS	high polyreactivity
QVQLVESGGGLVQAGGSLRLSCAASGRTIGVYAMGWYRQAPGKERELVAAISWSGGTTYYADSVKGRFTISRDNAKNTVYLQMNSLKPEDTAVYYCAADSYTEVDYWGQGSQVTVSS	low polyreactivity
QVQLEESGRGLVQAGGSLRLSCAASGSISGYYAMGWYRQAPGKERELVAVITSSGTSTYYADSVKGRFTISRDNAKNTVYLQMNSLKPEDTAVYDCWGQGTQVTVSS	low polyreactivity
QVQLVESGGGLDQAGGSLRLSCAASGSIFRNYAMGWYRQAPGKEREFVAAISGGGGSTYYADSVKGRFTISRDNAKNTVYLQMNSLKPEDTAVYYCARVRYYGALKLYAYDHWGQGTQVTVSS	high polyreactivity
QVQLVASGGGLVQAGGSLRLSCAASGSTFRVNVMGWYRQAPGIERELVADITTSGGSTYYADSVKGRFTISRDNAMITVYLQINSLTPEDTAVYYCNTTYQSGWGPDMDYWGQGTQVTVSS	low polyreactivity
QVQLVESGGGLVQAGGSLRLSCAASGGIFVLNAMGWYRQAPGKERELVATITSSGGSTYYADSVKGRFTISRDNAKNTVYLQMNSLKPEDTAVYYCNADWYLWSTFAQGYGYWGQGTQVTVSS	high polyreactivity
QDQLVESGGGLVQAGGSLRLSCAASGRIFKHNAMGWYRQAPGKERELVATISIAGRTNYADSVKGRFTISRDNAKNTVYLQMNSLKPEDTAVYYCAASTFFIHTYDYWGQGTQVTVSS	low polyreactivity
QVQLVESGGGLVQAGGSLRLSCAASGRIFLGYTMGWYRQAPGKERELVAAISYSGGSTYYADSVKGRFTISRDYAKNTVYFQMNSLKPEDTAVYYCNKVYSIRGYWGQGTQVTVSS	high polyreactivity
HVQLVESGGGLVQAGGSLRLSFAASASIYQFYPMGWYRPAPGKERELVAGINNSGGSTYYADSVKGRFTISRDNAKNTVYLQMNSLKPEDTAVYYCMARSRYDTGRQRGYDYWGQGTQVTVSS	low polyreactivity
